Measured values reported in patent US20070212363A1 (US Dept. of Health and Human Services, published 2007).

Experiments:
Assay in all cases: cell-based or functional assay
[1] = biological target: T1, HIV-1 JR-FL envelope glycoprotein (Env) (HIV-1 strain JR-FL)
[2] = biological target: HIV-1 AD8 envelope glycoprotein (Env) (HIV-1 strain AD8)
[3] = biological target: HIV-1 IIIB envelope glycoprotein (Env) (HIV-1 strain IIIB)
[4] = biological target: T1, HIV-1 JR-FL envelope glycoprotein (Env); remark: listed apart in the source
[5] = biological target: HIV-1 AD8 envelope glycoprotein (Env) (HIV-1 strain AD8); remark: listed apart in the source
[6] = biological target: HIV-1 IIIB envelope glycoprotein (Env) (HIV-1 strain IIIB); remark: listed apart in the source

B1: scFv m9 (scFv)
scFv: VLTQSPGTLSLSAGERATLSCRASQSVSSGSLAWYQQKPGQAPRLLIYGASTRATGIPDRFSGSGSGTDFTLTIGRLEPEDLAVYYCQQYGTSPYTFGQGTKLEIKRTGGGGSGGGGSGGGGSVQLLEQSGAEVKKPGSSVQVSCKAFGGTFSMYGFNWVRQAPGHGLEWMGGIIPIFGTTNYAQKFRGRVTFTADQATSTAYMELTNLRSDDTAVYYCARDFGPDWEGGDSYDGSGRGFFDFWGQGTLVNVSS
- percentage of maximal infection, U87.CD4.CCR5.CXCR4 cells, 100 µg/mL antibody [1]: 20%
- percentage of maximal infection, U87.CD4.CCR5.CXCR4 cells, 100 µg/mL antibody [2]: 6.1%
- percentage of maximal infection, U87.CD4.CCR5.CXCR4 cells, 100 µg/mL antibody [3]: 12%
- Neutralizing activity (percentage) at 100 µg/mL [4]: 90%
- Neutralizing activity (percentage) at 100 µg/mL [5]: 100%
- Neutralizing activity (percentage) at 100 µg/mL [6]: 100%
